Measurements reported in publication PMC8096101.

Biological target: SMO657-nanoluc (UniProt P56726)
Experiment: BRET
Conditions: HEK293 cells; SMO657-nanoluc donor, YFP-tagged PKA-C acceptor; BRET ratio (YFP/nanoluc), background-subtracted; parent: est. 2.4; read off a plot

Sequence of UniProt P56726 (P56726 65-657): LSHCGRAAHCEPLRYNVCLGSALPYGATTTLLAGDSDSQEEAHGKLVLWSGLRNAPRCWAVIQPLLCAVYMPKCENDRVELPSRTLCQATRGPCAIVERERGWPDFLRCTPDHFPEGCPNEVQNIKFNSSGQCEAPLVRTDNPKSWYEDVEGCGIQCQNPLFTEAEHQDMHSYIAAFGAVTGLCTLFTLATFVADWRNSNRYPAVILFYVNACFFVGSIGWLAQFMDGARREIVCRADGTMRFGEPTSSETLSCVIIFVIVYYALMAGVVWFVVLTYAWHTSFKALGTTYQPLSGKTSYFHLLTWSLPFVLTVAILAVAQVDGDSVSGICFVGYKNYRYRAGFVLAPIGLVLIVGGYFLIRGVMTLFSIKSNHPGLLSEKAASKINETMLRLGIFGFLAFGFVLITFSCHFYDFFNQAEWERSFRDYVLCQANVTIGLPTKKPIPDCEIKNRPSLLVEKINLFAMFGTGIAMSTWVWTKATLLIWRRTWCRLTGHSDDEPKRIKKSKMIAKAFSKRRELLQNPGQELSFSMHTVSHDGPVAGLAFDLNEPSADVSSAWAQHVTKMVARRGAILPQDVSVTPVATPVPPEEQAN

Q: How did the response turn out when “PKA-C-YFP (PKA catalytic subunit alpha, carboxyl-terminally YFP-tagged) (from UniProt P05132) H87Q; W196R” was run?
A: Its response is 2.5 BRET.
